B1: BaeS sensory kinase tagged with monomeric yellow fluorescent protein (BaeS-mYFP) [E. coli] / itself (parent)
chain: MKFWRPGITGKLFLAIFATCIVLLISMHWAVRISFERGFIDYIKHGNEQRLQLLSDALGEQYAQHGNWRFLRNNDRFVFQILRSFEHDNSEDKPGPGMPPHGWRTQFWVVDQNNKVLVGPRAPIPPDGTRRPILVNGAEVGAVIASPVERLTRNTDINFDKQQRQTSWLIVALATLLAALATFLLARGLLAPVKRLVDGTHKLAAGDFTTRVTPTSEDELGKLAQDFNQLASTLEKNQQMRRDFMADISHELRTPLAVLRGELEAIQDGVRKFTPETVASLQAEVGTLTKLVDDLHQLSMSDEGALAYQKAPVDLIPLLEVAGGAFRERFASRGLKLQFSLPDSITVFGDRDRLMQLFNNLLENSLRYTDSGGSLQISAGQRDKTVRLTFADSAPGVSDDQLQKLFERFYRTEGSRNRASGGSGLGLAICLNIVEAHNGRIIAAHSPFGGVSITVELPLERDLQREV

Variants of: B1
Test: fluorescence anisotropy (homo-FRET) on cells
Conditions: with itself; ΔbaeS cells; Copper (10 μM) added at about 45 sec; plateau read at about 200-300 sec, before EDTA (100 μM); parent: 0.79; read off a plot

Variant	response [r/r0]
chain 1 H45A H65A H87A H101A	0.95

— PMC4780735
